Results: article PMC11957393

Biological target: chicken MyD88, full length, Flag-tagged (Flag-MyD88), expressed in HEK293T cells (chicken) (UniProt A5HNF6)
Test: co-IP; HEK293T cells co-transfected with the indicated plasmids (2 ug/1x10^6 cells), harvested at 30 h; NP-40 lysis buffer; immunoprecipitated by the Flag tag, blotted for HA and Flag tags

Sequence of UniProt A5HNF6 (A5HNF6 whole entry): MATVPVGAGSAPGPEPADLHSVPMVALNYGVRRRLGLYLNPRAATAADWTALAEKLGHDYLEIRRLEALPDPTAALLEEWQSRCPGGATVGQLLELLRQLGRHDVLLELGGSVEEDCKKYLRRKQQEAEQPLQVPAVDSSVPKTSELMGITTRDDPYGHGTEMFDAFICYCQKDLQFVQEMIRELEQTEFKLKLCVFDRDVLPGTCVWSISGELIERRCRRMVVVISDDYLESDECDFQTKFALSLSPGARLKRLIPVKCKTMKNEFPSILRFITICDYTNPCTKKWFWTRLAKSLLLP

## VP2-HT: IBDV VP2 with the double mutation Q253H/A284T (VP2 of the rescued HT strain), expressed in HEK293T cells (natural protein)
  fold decrease of interaction compared to VP2: 2.9 fold
